From patent US20250361297A1, “ANTI- SIGLEC-15 BINDING MOLECULES AND METHODS OF USE” (ADAPTAM THERAPEUTICS, S.L., priority 2024, published 2025)
“Also recorded” adds a separate entry of the source.

Key:
[1] = test system: osteoclast differentiation; experiment: Osteoclast differentiation in vitro (TRACP 5b in culture medium); type: cell-based; conditions: relative to baseline levels; culture medium at day 7 (FIG. 46)
[2] = biological target: T1, recombinant human Siglec-15 protein (Homo sapiens, UniProt Q6ZMC9); experiment: BIACORE surface plasmon resonance binding affinity; conditions: SPR; antibody as ligand, human Siglec-15 as analyte; 1:1 Langmuir model
T1 construct: purchased Bonopusbio CW70-50 ug
T1 sequence (Q6ZMC9 20-263 limits assumed): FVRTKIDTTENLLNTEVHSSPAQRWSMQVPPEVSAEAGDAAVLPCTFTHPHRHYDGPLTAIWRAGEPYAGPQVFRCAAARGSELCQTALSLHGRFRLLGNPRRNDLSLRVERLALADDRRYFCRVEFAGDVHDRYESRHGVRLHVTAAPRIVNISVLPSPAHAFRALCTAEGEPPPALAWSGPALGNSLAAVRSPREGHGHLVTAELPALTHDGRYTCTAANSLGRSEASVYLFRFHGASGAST
Description: Binding affinity determination of anti-Siglec-15 monoclonal antibodies using BIACORE surface plasmon resonance: The purified anti-Siglec-15 monoclonal antibodies (mAbs) were characterized for binding affinity and binding kinetics by Biacore T200 system (GE healthcare, Pittsburgh, PA, USA). Anti-Siglec-15 antibodies were covalently linked to a CM5 chip (carboxy methyl dextran coated chip, GE healthcare, Cat #BR-1005-30) via primary amines, using a standard amine coupling kit provided by Biacore (GE healthcare, Pittsburgh, PA, USA). Un-reacted moieties on the biosensor surface were blocked with ethanolamine. Then, serially diluted recombinant human Siglec-15-his protein (Bonopusbio, CW70-50 ug), 2-fold serial dilution in HBS-EP buffer starting at 80 nM, were respectively flown onto the chip at a flow rate of […]. The antigen-antibody association kinetics was followed for 2 minutes, and the dissociation kinetics was followed for 10 minutes. The association and dissociation curves were fit to a 1:1 Langmuir binding model using BIAcore evaluation software. The dissociation rate (kd) and association constant (ka) rate constants were obtained using Evaluation Software. The equilibrium dissociation constant (KD) was calculated from the ratio of kd over ka.

[3] = biological target: T2, mutant version of Siglec-15 (R143A) (Homo sapiens, UniProt Q6ZMC9, R143A); experiment: Flow cytometry binding to HEK293T cells expressing mutant Siglec-15 (R143A); conditions: flow cytometry (FIG. 20, FIG. 21)
T2 construct: expressed in transfected cells; host or cells: HEK293T
T2 sequence (Q6ZMC9 20-328 R143A): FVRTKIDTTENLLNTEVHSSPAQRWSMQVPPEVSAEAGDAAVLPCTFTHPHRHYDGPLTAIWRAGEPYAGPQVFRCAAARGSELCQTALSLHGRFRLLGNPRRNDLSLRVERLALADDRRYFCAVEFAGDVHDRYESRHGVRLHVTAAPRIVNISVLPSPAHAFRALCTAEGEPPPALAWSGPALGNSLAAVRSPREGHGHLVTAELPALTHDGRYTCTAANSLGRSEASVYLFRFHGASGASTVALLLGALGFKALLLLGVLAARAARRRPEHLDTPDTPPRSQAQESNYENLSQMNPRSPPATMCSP
Description: Assessment of the binding of anti-Siglec-15 antibodies to HEK293T cells expressing full length human Siglec-15, or mutant human Siglec-15 (R143A) or the domain 2 of human Siglec-15 by Flow cytometry: Siglec-15+, Siglec-15+R143A, and Siglec-15 Domain 2 (D2) HEK293T cells were detached using tryple and washed once with PBS, resuspended in 1× flow cytometry buffer (PBS with 1% FBS) at approximately 1-2×10^6 cells/mL. Then, anti-Siglec-15 mAbs were added to the cell suspension at the desired concentration, starting at 10 μg/mL and performing 1/3 dilutions. Cells were incubated with the indicated antibodies for 30-60 minutes at 4° C. in the dark to prevent degradation of the fluorescent signal. After the primary antibody incubation, cells were washed twice with PBS or flow cytometry buffer by centrifuging at 300-500× g for 5 minutes and the pellet resuspended in fresh buffer. The following antibody was added: anti-human IgG-PE at a 1:500 dilution. Cells were incubated with the secondary antibody for 30 minutes at 4° C. in the dark. Finally, cells were washed twice with PBS or flow cytometry buffer to remove any excess secondary antibody and acquired in a flow cytometer.

[4] = test system: truncated second domain (D2) of Siglec-15; experiment: Flow cytometry binding to HEK 293T cells expressing only the truncated second domain (D2) of Siglec-15; parameters: species or system human; conditions: HEK 293T cells expressing only truncated D2; flow cytometry (FIG. 2B, FIG. 17)
Description: Flow cytometry was used to interrogate the binding of anti-Siglec-15 monoclonal antibodies to cells expressing only a truncated version of Siglec-15 comprising solely of the second domain (D2). This strategy was useful to identify clones that recognize epitopes outside of the canonical sialic acid binding site located in the first domain (D1).
For the ELISA, antigens were immobilized on high-binding plates, and the full-length IgG1 anti-Siglec-15 antibodies were titrated beginning at a concentration of 10 μg/ml. After washing, an anti-human IgG Fab-specific HRP-conjugated secondary antibody was applied for detection. Palivizumab was included as the negative control. Optical densities were measured to generate binding curves from which EC50 values were derived. […] Flow cytometric analysis was conducted, and fluorescence intensity was used to calculate EC50 values, providing a quantitative assessment of the antibodies' cell surface binding efficacy. […] Antibodies were titrated starting at a concentration of 10 μg/ml and detected with an anti-human Fc-specific secondary antibody to detect bound primary antibodies. The half-maximal effective concentration (EC50) was calculated for each antibody to determine its binding affinity to mouse Siglec-15. Results were analyzed and ranked based on the EC50 values. […]

ka [2]: 4.46e+06 M⁻¹ s⁻¹ | kd [2]: 0.000233 s⁻¹ | binding to HEK293T cells expressing mutated Siglec-15 (R143A) [3]: demonstrated binding
B1: S15B1: parental mouse anti-Siglec-15 monoclonal antibody from hybridoma; VH SEQ ID NO: 18, VL SEQ ID NO: 19 (antibody, V domains shown)
VH: QVQLQQSGPELVKPGASVKISCKASGYAFSSSWMNWVKQRPGKGLEWIGRIYPGHGETNYNGKFKDKATVTADKSSSTTYMQLSSLTSEDSAVYFCARVDNSDPYYFDYWGQGTTLTVSS
VL: DIVLTQSPASLAVSLGQRATISCRASKSVSTSGYSYMHWYQQKPGQPPKLLIYLASNLESGVPARFSGSGSGTDFTLNIHPVEEEDAATYYCQHGRELPFTFGSGTKLEIK
modifications: Clone S15B1 VH; Clone S15B1 VL
effect on osteoclast differentiation (TRACP 5b) [1]: did not significantly affect | binding to D2 of Siglec-15 [4]: displayed binding affinity for D2; also recorded: significant binding to D2
